B1: 17B11 + 03D03 2(G4S) biparatopic VHH construct (bispecific antibody)
chain: QVQLVESGGGLVQAGGSLRLSCAASGRTFSSYAMGWFRQTPGKDREFVARIGWTGGTTIYADSVKGRFTISRDNAKNTVYLQMNSLKPEDTAVYYCAADQAGWRTAGVRNTYEYDYWGQGTQVTVSSGGGGSGGGGSQLQLVESGGGLVQPGGSLRLSCAASGFTLDDYTIGWFRQAPGKEREGVSCINSITSNTYYADSVKGRFTISRDNAKNTVYLQMNSLTAEDTAIYYCAADSGLFSGSSCLKYRAMRFGSWGQGTQVTVSS
notes: Biparatopic; not shown: FLAG and His tags
B2: 03E11 + 03D03 2(G4S) biparatopic VHH construct (bispecific antibody)
chain: QVQLQESGGGLVQVGSSLRLSCVTSGRTPSRYVMGWFRQAPGQEREFVAAISWSGRAPYADSVKGRFTISRDNAKNTVYLQMNSLKPEDTGVYYCAGGEGAIKWTTLDAYDYWGQGTQVTVSSGGGGSGGGGSQLQLVESGGGLVQPGGSLRLSCAASGFTLDDYTIGWFRQAPGKEREGVSCINSITSNTYYADSVKGRFTISRDNAKNTVYLQMNSLTAEDTAIYYCAADSGLFSGSSCLKYRAMRFGSWGQGTQVTVSS
notes: Biparatopic: two anti-porcine CD163 VHHs in one chain; also called 19-17; 03D03+03E11; not shown: FLAG and His tags
B3: 03D03 + 17B11 + 03E11 2(G4S) triparatopic VHH construct (bispecific antibody)
chain: QLQLVESGGGLVQPGGSLRLSCAASGFTLDDYTIGWFRQAPGKEREGVSCINSITSNTYYADSVKGRFTISRDNAKNTVYLQMNSLTAEDTAIYYCAADSGLFSGSSCLKYRAMRFGSWGQGTQVTVSSGGGGSGGGGSQVQLVESGGGLVQAGGSLRLSCAASGRTFSSYAMGWFRQTPGKDREFVARIGWTGGTTIYADSVKGRFTISRDNAKNTVYLQMNSLKPEDTAVYYCAADQAGWRTAGVRNTYEYDYWGQGTQVTVSSGGGGSGGGGSQVQLQESGGGLVQVGSSLRLSCVTSGRTPSRYVMGWFRQAPGQEREFVAAISWSGRAPYADSVKGRFTISRDNAKNTVYLQMNSLKPEDTGVYYCAGGEGAIKWTTLDAYDYWGQGTQVTVSS
notes: Triparatopic; not shown: FLAG and His tags
B4: 17B11 + 03D03 5(G4S) biparatopic VHH construct (bispecific antibody)
chain: QVQLVESGGGLVQAGGSLRLSCAASGRTFSSYAMGWFRQTPGKDREFVARIGWTGGTTIYADSVKGRFTISRDNAKNTVYLQMNSLKPEDTAVYYCAADQAGWRTAGVRNTYEYDYWGQGTQVTVSSGGGGSGGGGSGGGGSGGGGSGGGGSQLQLVESGGGLVQPGGSLRLSCAASGFTLDDYTIGWFRQAPGKEREGVSCINSITSNTYYADSVKGRFTISRDNAKNTVYLQMNSLTAEDTAIYYCAADSGLFSGSSCLKYRAMRFGSWGQGTQVTVSS
notes: as for B1
B5: 03D03 + 03E11 + 17B11 2(G4S) triparatopic VHH construct (bispecific antibody)
chain: QLQLVESGGGLVQPGGSLRLSCAASGFTLDDYTIGWFRQAPGKEREGVSCINSITSNTYYADSVKGRFTISRDNAKNTVYLQMNSLTAEDTAIYYCAADSGLFSGSSCLKYRAMRFGSWGQGTQVTVSSGGGGSGGGGSQVQLQESGGGLVQVGSSLRLSCVTSGRTPSRYVMGWFRQAPGQEREFVAAISWSGRAPYADSVKGRFTISRDNAKNTVYLQMNSLKPEDTGVYYCAGGEGAIKWTTLDAYDYWGQGTQVTVSSGGGGSGGGGSQVQLVESGGGLVQAGGSLRLSCAASGRTFSSYAMGWFRQTPGKDREFVARIGWTGGTTIYADSVKGRFTISRDNAKNTVYLQMNSLKPEDTAVYYCAADQAGWRTAGVRNTYEYDYWGQGTQVTVSS
notes: as for B3
B6: 03E11 + 03D03 5(G4S) biparatopic VHH construct (bispecific antibody)
chain: QVQLQESGGGLVQVGSSLRLSCVTSGRTPSRYVMGWFRQAPGQEREFVAAISWSGRAPYADSVKGRFTISRDNAKNTVYLQMNSLKPEDTGVYYCAGGEGAIKWTTLDAYDYWGQGTQVTVSSGGGGSGGGGSGGGGSGGGGSGGGGSQLQLVESGGGLVQPGGSLRLSCAASGFTLDDYTIGWFRQAPGKEREGVSCINSITSNTYYADSVKGRFTISRDNAKNTVYLQMNSLTAEDTAIYYCAADSGLFSGSSCLKYRAMRFGSWGQGTQVTVSS
notes: as for B1
B7: 03E11 + 03D03 + 17B11 2(G4S) triparatopic VHH construct (bispecific antibody)
chain: QVQLQESGGGLVQVGSSLRLSCVTSGRTPSRYVMGWFRQAPGQEREFVAAISWSGRAPYADSVKGRFTISRDNAKNTVYLQMNSLKPEDTGVYYCAGGEGAIKWTTLDAYDYWGQGTQVTVSSGGGGSGGGGSQLQLVESGGGLVQPGGSLRLSCAASGFTLDDYTIGWFRQAPGKEREGVSCINSITSNTYYADSVKGRFTISRDNAKNTVYLQMNSLTAEDTAIYYCAADSGLFSGSSCLKYRAMRFGSWGQGTQVTVSSGGGGSGGGGSQVQLVESGGGLVQAGGSLRLSCAASGRTFSSYAMGWFRQTPGKDREFVARIGWTGGTTIYADSVKGRFTISRDNAKNTVYLQMNSLKPEDTAVYYCAADQAGWRTAGVRNTYEYDYWGQGTQVTVSS
notes: Triparatopic: three anti-porcine CD163 VHHs in one chain; also called Tri-2; Tri2; not shown: FLAG and His tags
B8: 03E11 + 17B11 2(G4S) biparatopic VHH construct (bispecific antibody)
chain: QVQLQESGGGLVQVGSSLRLSCVTSGRTPSRYVMGWFRQAPGQEREFVAAISWSGRAPYADSVKGRFTISRDNAKNTVYLQMNSLKPEDTGVYYCAGGEGAIKWTTLDAYDYWGQGTQVTVSSGGGGSGGGGSQVQLVESGGGLVQAGGSLRLSCAASGRTFSSYAMGWFRQTPGKDREFVARIGWTGGTTIYADSVKGRFTISRDNAKNTVYLQMNSLKPEDTAVYYCAADQAGWRTAGVRNTYEYDYWGQGTQVTVSS
notes: as for B1
B9: 17B11 + 03D03 + 03E11 2(G4S) triparatopic VHH construct (bispecific antibody)
chain: QVQLVESGGGLVQAGGSLRLSCAASGRTFSSYAMGWFRQTPGKDREFVARIGWTGGTTIYADSVKGRFTISRDNAKNTVYLQMNSLKPEDTAVYYCAADQAGWRTAGVRNTYEYDYWGQGTQVTVSSGGGGSGGGGSQLQLVESGGGLVQPGGSLRLSCAASGFTLDDYTIGWFRQAPGKEREGVSCINSITSNTYYADSVKGRFTISRDNAKNTVYLQMNSLTAEDTAIYYCAADSGLFSGSSCLKYRAMRFGSWGQGTQVTVSSGGGGSGGGGSQVQLQESGGGLVQVGSSLRLSCVTSGRTPSRYVMGWFRQAPGQEREFVAAISWSGRAPYADSVKGRFTISRDNAKNTVYLQMNSLKPEDTGVYYCAGGEGAIKWTTLDAYDYWGQGTQVTVSS
notes: as for B3
B10: 03E11 + 17B11 + 03D03 2(G4S) triparatopic VHH construct (bispecific antibody)
chain: QVQLQESGGGLVQVGSSLRLSCVTSGRTPSRYVMGWFRQAPGQEREFVAAISWSGRAPYADSVKGRFTISRDNAKNTVYLQMNSLKPEDTGVYYCAGGEGAIKWTTLDAYDYWGQGTQVTVSSGGGGSGGGGSQVQLVESGGGLVQAGGSLRLSCAASGRTFSSYAMGWFRQTPGKDREFVARIGWTGGTTIYADSVKGRFTISRDNAKNTVYLQMNSLKPEDTAVYYCAADQAGWRTAGVRNTYEYDYWGQGTQVTVSSGGGGSGGGGSQLQLVESGGGLVQPGGSLRLSCAASGFTLDDYTIGWFRQAPGKEREGVSCINSITSNTYYADSVKGRFTISRDNAKNTVYLQMNSLTAEDTAIYYCAADSGLFSGSSCLKYRAMRFGSWGQGTQVTVSS
notes: as for B3
B11: 03E11 + 17B11 5(G4S) biparatopic VHH construct (bispecific antibody)
chain: QVQLQESGGGLVQVGSSLRLSCVTSGRTPSRYVMGWFRQAPGQEREFVAAISWSGRAPYADSVKGRFTISRDNAKNTVYLQMNSLKPEDTGVYYCAGGEGAIKWTTLDAYDYWGQGTQVTVSSGGGGSGGGGSGGGGSGGGGSGGGGSQVQLVESGGGLVQAGGSLRLSCAASGRTFSSYAMGWFRQTPGKDREFVARIGWTGGTTIYADSVKGRFTISRDNAKNTVYLQMNSLKPEDTAVYYCAADQAGWRTAGVRNTYEYDYWGQGTQVTVSS
notes: as for B1

Tests used:
[1] = target: T1, porcine CD163, membrane-bound form on porcine pulmonary alveolar macrophage (pPAM) WT cells (porcine, UniProt Q2VL90 47-1115); assay: dose-response FACS on pPAM WT cells, anti-FLAG-biotin and streptavidin R-PE detection
T1 construct: Native CD163 on primary cells; also called membrane CD163; cell-surface CD163
T1 sequence: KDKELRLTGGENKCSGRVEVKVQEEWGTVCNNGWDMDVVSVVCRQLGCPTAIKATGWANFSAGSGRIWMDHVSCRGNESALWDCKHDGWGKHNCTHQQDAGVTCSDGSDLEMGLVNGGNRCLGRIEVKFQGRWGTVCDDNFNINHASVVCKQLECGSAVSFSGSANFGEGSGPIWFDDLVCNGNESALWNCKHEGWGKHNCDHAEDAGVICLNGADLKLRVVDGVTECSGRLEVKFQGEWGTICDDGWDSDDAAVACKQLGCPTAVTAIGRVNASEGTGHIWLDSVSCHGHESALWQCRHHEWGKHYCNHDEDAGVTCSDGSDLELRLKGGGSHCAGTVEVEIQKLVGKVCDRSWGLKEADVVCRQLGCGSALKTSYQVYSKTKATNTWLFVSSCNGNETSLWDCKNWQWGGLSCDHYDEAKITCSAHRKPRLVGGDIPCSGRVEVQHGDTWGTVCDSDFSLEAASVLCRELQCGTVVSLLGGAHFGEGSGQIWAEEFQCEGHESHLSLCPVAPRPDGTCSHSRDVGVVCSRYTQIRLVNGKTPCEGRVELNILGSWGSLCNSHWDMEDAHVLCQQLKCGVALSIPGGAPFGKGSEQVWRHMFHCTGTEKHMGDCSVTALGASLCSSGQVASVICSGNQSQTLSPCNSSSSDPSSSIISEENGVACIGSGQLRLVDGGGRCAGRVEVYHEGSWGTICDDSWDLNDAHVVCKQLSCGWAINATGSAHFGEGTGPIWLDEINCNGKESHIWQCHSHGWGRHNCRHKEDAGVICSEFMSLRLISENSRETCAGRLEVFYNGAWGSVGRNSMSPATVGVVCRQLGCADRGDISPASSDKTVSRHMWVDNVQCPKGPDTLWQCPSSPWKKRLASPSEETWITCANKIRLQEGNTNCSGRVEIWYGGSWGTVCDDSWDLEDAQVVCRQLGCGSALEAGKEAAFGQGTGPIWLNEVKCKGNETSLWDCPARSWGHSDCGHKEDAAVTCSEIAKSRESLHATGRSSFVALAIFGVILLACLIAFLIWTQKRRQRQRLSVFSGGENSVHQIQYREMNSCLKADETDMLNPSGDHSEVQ
Description: Biparatopic and triparatopic antibody constructs in PBS (pH7.4) were diluted in a 3-fold serial dilutions from 150 nM down to 0.023 nM in FACS buffer (0.5% FBS, 0.5 mM EDTA in 1×PBS pH7.4). Biparatopic and triparatopic candidates were incubated with anti-FLAG-Biotin (Sigma, Cat. nr. F9291), for 30 min on ice with shaking. This mixture was added to pPAM WT cells and incubated for 60 min on ice with gentle shaking. Cells were washed 3×with 150 μl/well of FACS buffer and incubated with 50 μl/well of the secondary detection reagent Streptavidin R-P.E. conjugate antibody (Invitrogen, Cat. nr. SA10044) for 30 min on ice with shaking and protected from light. Cells were then washed 3× with 150 μl/well of FACS Buffer and resuspended in 50 μl/well of FACS buffer to be measured on a FACS machine (Attune™ N×T), and a total of 10000 cells were acquired per sample.

[2] = target: T1, porcine CD163, membrane-bound form on …; assay: cell-based or functional assay
[3] = target: T1, porcine CD163, membrane-bound form on …; assay: cell-based or functional assay; remark: listed apart in the source

Row | Binder | EC50 [1] [nM] | also measured
1 | B1 | 6.6 | 
2 | B2 | 8.4 | 
3 | B3 | 13.6 | 
4 | B4 | 6.6 | 
5 | B5 | 3.8 | 
6 | B6 | 6.5 | 
7 | B7 | 9.1 | IC50, PRRSV1 LT3 infection assay, high CD163 porcine serum [2]: 2.96 nM; IC50, PRRSV1 LT3 infection assay, low CD163 porcine serum [2]: 2.81 nM; IC50, PRRSV2 strain MN184 infection assay, 10% FBS [3]: 2.13 nM; IC50, PRRSV2 strain NA174 infection assay, high CD163 porcine serum [3]: 5.01 nM; IC50, PRRSV2 strain NA174 infection assay, low CD163 porcine serum [3]: 4.99 nM
8 | B8 | 6.8 | 
9 | B9 | 8 | 
10 | B10 | 18.2 | 
11 | B11 | 8.4 | 
